Read-outs that look alike come from different tables or passages of the source.
T1: human IL-18BP (interleukin-18 binding protein, isoform A) (human, UniProt O95998 31-194)
T1 sequence: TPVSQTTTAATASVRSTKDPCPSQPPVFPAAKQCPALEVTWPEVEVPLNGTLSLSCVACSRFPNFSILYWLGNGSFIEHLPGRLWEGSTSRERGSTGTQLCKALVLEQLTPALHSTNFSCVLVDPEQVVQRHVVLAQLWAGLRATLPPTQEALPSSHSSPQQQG

T2: cynomolgus IL-18BP (cynomolgus monkey)
T2 construct: Generated in-house; also called cyIL-18BP; cyno IL-18BP
T2 chain: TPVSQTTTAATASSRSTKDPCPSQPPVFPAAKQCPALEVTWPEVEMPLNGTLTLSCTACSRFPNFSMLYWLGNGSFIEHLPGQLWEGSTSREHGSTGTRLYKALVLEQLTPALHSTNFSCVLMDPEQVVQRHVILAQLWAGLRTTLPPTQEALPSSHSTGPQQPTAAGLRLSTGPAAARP


Legend:
[1] = target: hypo-IL-18 (IL-18 tethered to IL-18BP by a flexible linker with TEV site, 6xHis) (human); experiment: BLI
hypo-IL-18 (IL-18 tethered to IL-18BP by a flexible linker with TEV site, 6xHis) (human), sequence (chain, as listed by the source limits assumed): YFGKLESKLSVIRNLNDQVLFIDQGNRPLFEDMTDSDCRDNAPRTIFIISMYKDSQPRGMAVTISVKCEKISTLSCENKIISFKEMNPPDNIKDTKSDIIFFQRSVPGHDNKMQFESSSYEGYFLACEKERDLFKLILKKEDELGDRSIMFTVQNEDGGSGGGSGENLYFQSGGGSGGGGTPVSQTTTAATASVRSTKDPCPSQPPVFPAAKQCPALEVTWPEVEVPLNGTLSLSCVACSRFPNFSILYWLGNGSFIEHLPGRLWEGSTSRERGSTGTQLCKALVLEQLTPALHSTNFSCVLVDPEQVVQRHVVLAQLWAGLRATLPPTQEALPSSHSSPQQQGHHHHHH

[2] = target: T1, human IL-18BP (interleukin-18 binding …); experiment: cell-based or functional assay
[3] = target: T1, human IL-18BP (interleukin-18 binding …); experiment: BLI (Octet), mAb on AHC biosensor
[4] = target: T2, cynomolgus IL-18BP; experiment: BLI (Octet), mAb on AHC biosensor
[5] = target: T1, human IL-18BP (interleukin-18 binding …); experiment: cell-based or functional assay; remark: listed apart in the source
[6] = target: T1, human IL-18BP (interleukin-18 binding …); experiment: BLI, affinity column of Table E8
[7] = target: T2, cynomolgus IL-18BP; experiment: ratio of BLI KDs, cyno against human IL-18BP
[8] = target: T1, human IL-18BP (interleukin-18 binding …); experiment: cell-based or functional assay; remark: listed apart in the source
[9] = target: T1, human IL-18BP (interleukin-18 binding …); experiment: BLI (Octet), mAb on AHC biosensor; remark: listed apart in the source
[10] = target: T2, cynomolgus IL-18BP; experiment: BLI (Octet), mAb on AHC biosensor

| Binder | binding result [1] | EC50 (nM), KG-1 Assay (IFNγ) [2] [nM] | Kd [3] [nM] | Kd [4] [nM] | EC50 (nM), HEK293 IL-18 Reporter Assay (SEAP) [5] [nM] | Kd [6] [nM] | Cyno/human [7] [ratio] | EC50 in PBMC Assay 1 (endogenous IL-18BP), IFNγ [8] [nM] | EC50 in PBMC Assay 2 (precomplexed IL-18BP), IFNγ [8] [nM] | Kd [9] [nM] | Kd [10] [nM] |
| --- | --- | --- | --- | --- | --- | --- | --- | --- | --- | --- | --- |
| SA35a (antibody, human IgG1, V domains shown, murine variable regions on human IgG1 kappa constant regions) VH: QVQLQQSGAELVRPGVSVKISCKGSGYTFTDYPMHWVKQSHAKSLEWIGVISTYYGDASYNQKFKGKATMTVDKSSSTAYMELARLTSEDSAIYYCARWRGSFDYWGQGTTLTVSS VL: ENVLTQSPAIMSASPGEKVTMTCRASSSVSSSYLHWYQQKSGASPKLWIYSTSNLASGVPARFSGSGSGTSYSLTISSVEAEDAATYYCQQYSGYHTFGGGTKLEIK | no binding | 103 | 11 | 13 | 21 |  |  |  |  |  |  |
| SA303a (antibody, human IgG1, V domains shown, humanized; human IgG1 (suffix a), kappa) VH: QVQLQESGPGLVKPSQTLSLTCTVSGYSITSDYNAHWIRQPPGKGLEWIGYIHYSGSTNYNPSLKSRVTISRDTSKNQFSLKLSSVTAADTAVYYCARNFGSIYVNYFDYWGQGTLVTVSS VL: EIVLTQSPATLSLSPGERATLSCSASSSVSYMYWYQQKPGQAPRPLIYRTSNLASGIPARFSGSGSGTDFTLTISSLEPEDFAVYYCQQYHSYPTFGGGTKVEIK |  |  |  |  |  | 0.182 | 0.42 | 1.6 | 2.75 | 0.182 | 0.077 |
| SA310a (antibody, human IgG1, V domains shown, humanized; human IgG1 (suffix a), kappa) VH: QVQLQESGPGLVKPSQTLSLTCTVSGYSITSDYNAHWIRQPPGKGLEWIGYIHYSGSTMYNPSLKSRVTISRDTSKNQFSLKLSSVTAADTAVYYCARNYGSIYVNYFDYWGQGTLVTVSS VL: EIVLTQSPATLSLSPGERATLSCSASSSVSYMYWYQQKPGQAPRPLIYRTSNLASGIPARFSGSGSGTDFTLTISSLEPEDFAVYYCQQYHSYPTFGGGTKVEIK |  |  |  |  |  | 0.175 | 0.16 | 1.9 | 0.94 | 0.175 | 0.028 |
| SA320a (antibody, human IgG1, V domains shown, humanized; human IgG1 (suffix a), kappa) VH: QVQLQESGPGLVKPSQTLSLTCTVSGYSITQDYNAHWIRQPPGKGLEWIGYIHYSGQTYYNPSLKSRVTISRDTSKNQFSLKLSSVTAADTAVYYCARNFGSIYVNYFDYWGQGTLVTVSS VL: EIVLTQSPATLSLSPGERATLSCSASSSVSYMYWYQQKPGQAPRPLIYRTSNLASGIPARFSGSGSGTDFTLTISSLEPEDFAVYYCQQYHSYPTFGGGTKVEIK |  |  |  |  |  | 0.052 | 0.38 | 0.3 | 0.25 | 0.052 | 0.02 |
| SA338a (antibody, human IgG1, V domains shown, humanized; human IgG1 (suffix a), kappa) VH: QVQLQESGPGLVKPSQTLSLTCTVSGYSITQDYNAHWIRQPPGKGLEWIGYIHYSGQTYYNPSLKSRVTISRDTSKNQFSLKLSSVTAADTAVYYCARNFGSIYVNYFDYWGQGTLVTVSS VL: EIVLTQSPATLSLSPGERATLSCSASSSVSYMYWYQQKPGQAPRPLIYRTSNLASGIPARFSGSGSGTDFTLTISSLEPEDFAVYYCQLYHSYPTFGGGTKVEIK |  |  |  |  |  | 0.032 | 0.67 | 0.5 | 0.33 | 0.032 | 0.024 |
| SA337a (antibody, human IgG1, V domains shown, humanized; human IgG1 (suffix a), kappa) VH: QVQLQESGPGLVKPSQTLSLTCTVSGYSITQDYNAHWIRQPPGKGLEWIGYIHYSGQTNYNPSLKSRVTISRDTSKNQFSLKLSSVTAADTAVYYCARNYGSIYVNYFDYWGQGTLVTVSS VL: EIVLTQSPATLSLSPGERATLSCSASSSVSYMYWYQQKPGQAPRPLIYRTSNLASGIPARFSGSGSGTDFTLTISSLEPEDFAVYYCQLYHSYPTFGGGTKVEIK |  |  |  |  |  | 0.047 | 0.89 | 1 | 0.58 | 0.047 | 0.042 |
| SA307a (antibody, human IgG1, V domains shown, humanized; human IgG1 (suffix a), kappa) VH: QVQLQESGPGLVKPSQTLSLTCTVSGYSITQDYNAHWIRQPPGKGLEWIGYIHYSGSTNYNPSLKSRVTISRDTSKNQFSLKLSSVTAADTAVYYCARNYGSIYVNYFDYWGQGTLVTVSS VL: EIVLTQSPATLSLSPGERATLSCSASSSVSYMYWYQQKPGQAPRPLIYRTSNLASGIPARFSGSGSGTDFTLTISSLEPEDFAVYYCQQYHSYPTFGGGTKVEIK |  |  |  |  |  | 0.054 | 0.5 | 1.6 | 1.47 | 0.054 | 0.027 |
| SA309a (antibody, human IgG1, V domains shown, humanized; human IgG1 (suffix a), kappa) VH: QVQLQESGPGLVKPSQTLSLTCTVSGYSITSDYNAHWIRQPPGKGLEWIGYIHYSGQTNYNPSLKSRVTISRDTSKNQFSLKLSSVTAADTAVYYCARNYGSIYVNYFDYWGQGTLVTVSS VL: EIVLTQSPATLSLSPGERATLSCSASSSVSYMYWYQQKPGQAPRPLIYRTSNLASGIPARFSGSGSGTDFTLTISSLEPEDFAVYYCQQYHSYPTFGGGTKVEIK |  |  |  |  |  | 0.061 | 0.39 | 2.8 | 0.62 | 0.061 | 0.024 |
| SA322a (antibody, human IgG1, V domains shown, humanized; human IgG1 (suffix a), kappa) VH: QVQLQESGPGLVKPSQTLSLTCTVSGYSITQDYNAHWIRQPPGKGLEWIGYIHYSGQTNYNPSLKSRVTISRDTSKNQFSLKLSSVTAADTAVYYCARNYGSIYVNYFDYWGQGTLVTVSS VL: EIVLTQSPATLSLSPGERATLSCSASSSVSYMYWYQQKPGQAPRPLIYRTSNLASGIPARFSGSGSGTDFTLTISSLEPEDFAVYYCQQYHSYPTFGGGTKVEIK |  |  |  |  |  | 0.054 | 0.37 | 0.8 | 0.53 | 0.054 | 0.02 |
| SA33a (antibody, human IgG1, V domains shown, murine variable regions on human IgG1 kappa constant regions) VH: QVQLQQSGAELVRPGVSVKISCKGSGYTFTDYAMHWVKQSHAKSLEWIGVISTYYGDASYNQKFKGKATMTVDKSSSTAYMELARLTSEDSAIYYCARERDYYGSRLFDYWGQGTTLTVSS VL: EIVLTQSPTTMAASPGEKITITCSANSSISSNYLHWYQQKPGFSPKLLIYGTSNLASGVPARFSGSGSGTSYSLTIGTMEAEDVATYYCQQGSSIPYTFGGGTKLEIK | no binding | 129 | 3 | 16 | 0.36 |  |  |  |  |  |  |
| SA32a (antibody, human IgG1, V domains shown, murine variable regions on human IgG1 kappa constant regions) VH: EVQLQQSGPELVKTGASVKISCKASGYSFTGYYMHWVKQSHGKSLEWIGYISCYNGATSYNQKFKGKATFTVDTSSSTAYMQFNSLTSEDSAVYYCAITLHYAMDYWGQGTSVAS VL: DIVMTQAAFSNPVTLGTSASISCRSSKSLLHSNGITYLYWYLQKPGQSPQLLIYQMSNLASGVPDRFSSSGSGTDFTLRISRVEAEDVGVYYCAQNLELPWTFGGGTKLEIK | no binding | 109 | 17 | 19 | 6.82 |  |  |  |  |  |  |
| SA34a (antibody, human IgG1, V domains shown, murine variable regions on human IgG1 kappa constant regions) VH: QVQLQQSGAELARPGASVKLSCKASGYTFTDYYINWVKQRTGQGLEWIGEIYPGSGNTYYNEKFKGKATLTADKSSSTAYMQLSSLTSEDSAVYFCARGYYGRFAYWGQGTLVTVSA VL: DIVMTQAAFSNPVTLGTSASISCRSSKSLLHSNGITYLYWYLQKPGQSPQLLIYQMSNLASGVPDRFSSSGSGTDFTLRISRVEAEDVGVYYCDQNLELPFTFGSGTKLEIK | no binding | 51 | 18 | 12 | 5.02 |  |  |  |  |  |  |
| SA31a (antibody, human IgG1, V domains shown, murine variable regions on human IgG1 kappa constant regions) VH: QVQLQQPGSELVRPGASVKLSCKASGYTFTSYWMHWVKQRPGQGLEWIGNIYPGSGNTIYDEKFKSKATLTVDTSSSTAYMQLSSLTSEDSAVYYCTRWDNWEGYYFDYWGQGTTLTVSS VL: DIVMTQAAFSNPVTLGTSASISCRSSKSLLHSNGITYLYWYLQKPGQSPQLLIYQMSNLASGVPDRFSSSGSGTDFTLRISRVEAEDVGVYYCAQNLELPWTFGGGTKLEIK | no binding | 185 | 3 | 5 | 2.62 |  |  |  |  |  |  |

Reference: patent US20250368745A1 (published 2025)
